This assay deals with T1, E200 epitope of P2X7R.
T1 peptide: GHNYTTNILPGLNITC
Put plainly: ELISA, antibody-conjugated liposomes on E200 epitope. (In an ELISA, binding on a coated surface is turned into a signal by an enzyme label.)

B1: single domain antibody (variable domain of SEQ ID NO: 7) conjugated to gemcitabine liposome nanoparticles (VHH)
VHH: EVQLLESGGGLVQPGGSLRLSCAASGFTFRNHDMGWVRQAPGKGLEWVSAISGSGGSTYYANSVKGRFTISRDNSKNTLYLQMNSLRAEDTAVYYCAEPKPMDTEFDYRSPGTLVTVSS
modifications: activated via Traut's reagent (thiolated) and conjugated to maleimide groups of Maleimido-Succinyl-PEG4000-Oleate on the liposome
notes: also called BIL03s; BIL03s-coated nanoparticles
B1: the binding result was “binds”.

(Values after patent US20220249692A1 (BIOSCEPTRE AUST, published 2022).)
